In patent publication US20050070001A1, “Xylosyltransferase and isoforms thereof” (priority 1999, published 2005):

Biological target: T1, XT-II (Homo sapiens, UniProt Q9H1B5, R305T)
T1 construct: polyhistidine leader of vector pcDNA4/HisMax-TOPO (own knowledge of the vector); made in house; host or cells: CHO-K1, transient transfection with pCG226-XT-II; medium treated with anti-Xpress antibody and protein G agarose beads
T1 sequence (Q9H1B5 46-865 R305T): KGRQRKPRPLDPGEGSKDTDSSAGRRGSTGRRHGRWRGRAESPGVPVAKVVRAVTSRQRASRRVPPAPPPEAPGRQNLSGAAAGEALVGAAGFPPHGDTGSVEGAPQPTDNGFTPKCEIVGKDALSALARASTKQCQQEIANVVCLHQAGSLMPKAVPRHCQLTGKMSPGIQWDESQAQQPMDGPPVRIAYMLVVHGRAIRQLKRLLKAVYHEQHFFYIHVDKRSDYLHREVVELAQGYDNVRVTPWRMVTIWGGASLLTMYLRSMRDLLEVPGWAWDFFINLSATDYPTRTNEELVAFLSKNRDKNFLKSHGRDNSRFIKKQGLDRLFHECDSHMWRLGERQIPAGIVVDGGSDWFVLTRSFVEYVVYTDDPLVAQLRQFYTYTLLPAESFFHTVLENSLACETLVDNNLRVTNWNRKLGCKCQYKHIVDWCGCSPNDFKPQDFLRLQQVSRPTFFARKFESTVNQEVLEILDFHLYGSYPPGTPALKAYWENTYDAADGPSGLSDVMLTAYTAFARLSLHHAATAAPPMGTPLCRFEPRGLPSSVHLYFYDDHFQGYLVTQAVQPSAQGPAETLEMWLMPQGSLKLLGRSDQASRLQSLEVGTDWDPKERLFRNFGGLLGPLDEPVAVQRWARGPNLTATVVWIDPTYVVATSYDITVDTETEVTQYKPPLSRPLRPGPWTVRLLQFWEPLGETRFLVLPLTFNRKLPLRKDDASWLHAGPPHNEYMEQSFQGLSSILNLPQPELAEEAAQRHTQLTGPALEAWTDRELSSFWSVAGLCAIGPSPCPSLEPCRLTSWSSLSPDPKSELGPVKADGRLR
Assay: XT activity assay of XT-II fused to aminoterminal peptide tag, expressed in CHO-K1 cells
Assay type: biochemical
Excerpt: The degenerate primers PFF-sense and Lysc-inv1 which were designed upon the amino acid sequence of proteolytic cleaved peptides of human XT-I were used in a PCR reaction with first strand cDNA of placenta poly(A)^+ mRNA as template. […] To clone the complete coding sequence of the novel cDNA, the RACE strategy was employed. The cDNA finally obtained was 3608 bp (FIG. 8A) and contained a single open reading frame encoding a protein of 865 amino acids with a molecular mass of 97.000. The 3′-untranslated region is 850 bp and a 5′-untranslated region of 149 bp was identified with an in-frame stop codon upstream of the ATG codon. […] No detectable XT activity was recovered by the affinity purification from a control transfection sample. The substrate specificity of the recombinant XT-I was similar to that of the XT-I isolated from human body fluids and cell culture supernatants.
Determination of XT activity. Determination of XT activity is based on the incorporation of [14C]-D-xylose into the recombinant bikunin according to a previously described method (Brinkmann et al., 1997, J. Biol. Chem., 272, 11171-11175). For analysis of the substrate specificity of the recombinant xylosyltransferases synthetic peptides containing the XT recognition sequence were used as acceptor. […] Incorporated radioactivity was determined by liquid scintillation counting. […]

B1: XT-II: human xylosyltransferase isoform 2, 865 amino acids, FIG. 8B (protein, UniProt Q9H1B5 1-865, looked up)
chain: MVASARVQKLVRRYKLAIATALAILLLQGLVVWSFSGLEEDEAGEKGRQRKPRPLDPGEGSKDTDSSAGRRGSTGRRHGRWRGRAESPGVPVAKVVRAVTSRQRASRRVPPAPPPEAPGRQNLSGAAAGEALVGAAGFPPHGDTGSVEGAPQPTDNGFTPKCEIVGKDALSALARASTKQCQQEIANVVCLHQAGSLMPKAVPRHCQLTGKMSPGIQWDESQAQQPMDGPPVRIAYMLVVHGRAIRQLKRLLKAVYHEQHFFYIHVDKRSDYLHREVVELAQGYDNVRVTPWRMVTIWGGASLLRMYLRSMRDLLEVPGWAWDFFINLSATDYPTRTNEELVAFLSKNRDKNFLKSHGRDNSRFIKKQGLDRLFHECDSHMWRLGERQIPAGIVVDGGSDWFVLTRSFVEYVVYTDDPLVAQLRQFYTYTLLPAESFFHTVLENSLACETLVDNNLRVTNWNRKLGCKCQYKHIVDWCGCSPNDFKPQDFLRLQQVSRPTFFARKFESTVNQEVLEILDFHLYGSYPPGTPALKAYWENTYDAADGPSGLSDVMLTAYTAFARLSLHHAATAAPPMGTPLCRFEPRGLPSSVHLYFYDDHFQGYLVTQAVQPSAQGPAETLEMWLMPQGSLKLLGRSDQASRLQSLEVGTDWDPKERLFRNFGGLLGPLDEPVAVQRWARGPNLTATVVWIDPTYVVATSYDITVDTETEVTQYKPPLSRPLRPGPWTVRLLQFWEPLGETRFLVLPLTFNRKLPLRKDDASWLHAGPPHNEYMEQSFQGLSSILNLPQPELAEEAAQRHTQLTGPALEAWTDRELSSFWSVAGLCAIGPSPCPSLEPCRLTSWSSLSPDPKSELGPVKADGRLR
modifications: full-length
enzymatic transfer of xylose to the acceptor peptides: no enzymatic transfer of xylose
